# Assay results taken from the nanobody polyreactivity screen of Harvey et al. (2022).
# Assay: yeast display, Sf9 membrane polyspecificity reagent, FACS + sequencing; frameworks hold sequencing errors
# Summary of the method: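 A nanobody's polyreactivity label depends on the gate it was sorted from. Yeast display cells were stained with 10% biotinylated, detergent-solubilized Sf9 membrane reagent for 1 hour at 4 °C, enriched on streptavidin microbeads and sorted by FACS. The low and high (top ~1%) gates were set on anti-HA fluorescence for expression and streptavidin fluorescence for reagent binding.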
row,Sequence,polyreactivity (PSR sort gate)
1,QVQLVESGGGLVQAGGSLRLSCAASGSIFWLYAMGWYRQAPGKERELVAAISWSGTSTNYADSVKGRFTISRDNAKNTVYLQMNSLKPEDTAVYYCAAKWHVRGRGARYRYDYDYWGQGTQVTVSS,low polyreactivity
2,QVQLVESGGGLVQAGGSLRLSCAASGSIFWNNAMGWYRQAPGKERELVAGISSAGSTNYADSVKGRFTISRDNAKNTVYLQMNILKPEDTAVYYCAAVYYGGFSDYDYWGQGTQVTVSS,low polyreactivity
3,QVQLVESGGGLVQAGGSLRLSCAASGSIFWPNAMGWYRQAPGKERELVAAISWGTGSTYYADSVKGRFTISRDNAKNTVYLQMNSLKPEDTAVYYCAADGAYLDPYYDYWGQGTQVTVLS,low polyreactivity
4,QVQLVESGGGLVQAGGSLRLSCAASGSIFWPYAMGWYRQAPGKDRELVATITWTGGSTYYADSVKGRFTISRDNAKNTVYLQMNSLKPEDTAVYYCAAAGYYGYGYDYWGQGTQVTVSS,low polyreactivity
5,QVQLVESGGGLVQAGGSLRLSCAASGSIFWPYAMGWYRQAPGKERELVAAITWSGSSTYYADSVKGRFTISRDNAKNTVYLQMKSLKPEDTAVYYCAKRGWGIYDYWGQGTQVTVSS,low polyreactivity
6,QVQLVESGGGLVQAGGSLRLSCAASGSIFWPYAMGWYRQAPGKERELVAGISRSGGITYYADSVKGRFTISRDNAKNTVYLQMNSLKPEDTAVYYCARYQEWRQEYDYWGQGTQVTVSS,high polyreactivity
7,QVQLVESGGGLVQAGGSLRLSCAASGSIFWRNAMGWYRQAPGKERELVAAITSGGTTNYADSVKGRFTISRDNAKNTVYLQMISLIPEDTAVYYCATGASYLRRYDHPHSDVDYWGQGTQVTVSS,low polyreactivity
8,QVQLVESGGGLVQAGGSLRLSCAASGSIFWSNAMGWYRPATGKERELVAAISSGGSTYADSVKGRFTISRDNAKNTVYLQMNSLKPVDTAVYYCNADVLYGDYYRGGYWGQGTQVTVSS,low polyreactivity
9,QVQLVESGGGLVQAGGSLRLSCAASGSIFWSNAMGWYRQAPGKEREFVAAITWSGDNTYYADSVKGRFTISRDNAKNTVYLQMNSLKPEDTAVYYCAASGDYYWDEGDYWGQGTQVTVSS,low polyreactivity
10,QVQLVESGGGLVQAGGSLRLSCAASGSIFWSNAMGWYRQAPGKEREFVATITNGTTTNYADSVKGRFTISRDNAKNTVYLQMNSLKPEDTAVYYCAVTGVYVKYDYWGQGTQVTVSS,low polyreactivity
11,QVQLVESGGGLVQAGGSLRLSCAASGSIFWTNAMGWYRQAPGKERELVAAITSGGNTNYADSVKGRFTISRDNAKNTVYLQMNSLKPEDTAVYYCAARYGRGWRRTYTQYDSWGQGTQVTVSS,low polyreactivity
12,QVQLVESGGGLVQAGGSLRLSCAASGSIFWTYAMGWYRQAPGKERELVAGIRWSGGTTYADSVKGRFTISRDNAKNTVYLQMNSLKPEDTAVYYCNHYLSTYHGTFTYGYWGQGTQVTVSS,low polyreactivity
13,QVQLVESGGGLVQAGGSLRLSCAASGSIFWVYAMGWSRQAPGKERELVAAISNSGSTNYADSVKGRFTISRDNAKNTVYLQMNSLKPEDTAVYYCAKDSLVDHVGGYDYWGQGTQVTVSS,low polyreactivity
14,QVQLVESGGGLVQAGGSLRLSCAASGSIFWVYAMGWYRPAPGKERELVAGISSGGSTNYADSVKGRCTISRDTAKKTVYLQMNSLKPEDTAVYYCAAVIRTVRERYGYWGQGTQVTVSS,high polyreactivity
15,QVQLVESGGGLVQAGGSLRLSCAASGSIFWVYVMGWYRQAPGKEREFVAAISSSGGRTYYADSVKGRFTISRDNAKNTVYLQMNRLKPEDTAVYYCAARRYWWYSASAMDYWGQGTQVTVSS,high polyreactivity
16,QVQLVESGGGLVQAGGSLRLSCAASGSIFWWNAMGWYRQAPGKERELVAAISYSGGSTYYADSVKGRFTISRDNAKKTVYLQRNSLKPEDTAVYYCAATKFRYYGYDYWGQGTQVTVSS,low polyreactivity
17,QVQLVESGGGLVQAGGSLRLSCAASGSIFWWNAMGWYRQAPGKERELVAGITKIGSSTYYADSVKGRFTISRDNAKNTVYLQMNSLKPEDTAVYYCNAYGPNIYSSRYDYWGQGTQVTVSS,low polyreactivity
18,QVQLVESGGGLVQAGGSLRLSCAASGSIFWWYAMGWYRQAPGKERELVAAIRWSGTTTFYADSLKGRFTISRDNAKNNVFLQMKSLKPEDTAVYYCNAEGGIWGVTSGYDYWGQGTQVTVSS,low polyreactivity
19,QVQLVESGGGLVQAGGSLRLSCAASGSIFWYNAMGWSRPAPGKERELVAAITWSGGSTYYADSVKGRFTISRDNAKNTVYLQMNSLKPEDTAVYYCATVPHYYYDYDYWGQGTQVTVSS,low polyreactivity
20,QVQLVESGGGLVQAGGSLRLSCAASGSIFWYNAMGWYRQAPGKESELVAAISWDGGSTYYADSVKGRFTISRDNAKNTVYLQMNSLKPEDTAVYYCNRVYIVWYTRYVVSGWYDYWGQGTEVTVSS,high polyreactivity
21,QVQLVESGGGLVQAGGSLRLSCAASGSIFWYYAMGWYRQAPGKERELVADITSTGGSTYYADSVKGRFTISRDNAKNTVYLQMNSLKPEDTAVYYCAADNTYSEEDYWGQGTQVNVSS,high polyreactivity
22,QVQLVESGGGLVQAGGSLRLSCAASGSIFWYYAMGWYRQAPGKERELVARITYSSGSTYYADSVKGRFTISRDNAKNTVYLQMNSLKPEDTAVFYCAVRLYSYLYNPFNYWGQGTQVTVSS,high polyreactivity
23,QVQLVESGGGLVQAGGSLRLSCAASGSIFWYYAMGWYRQAPGKERELVATIRKRSGSTYYADSVKGRFTISRDNAKNTVYLQMNSLKPEDTAVYYCAADYTAYGYDYWGQGTQVTVSS,low polyreactivity
24,QVQLVESGGGLVQAGGSLRLSCAASGSIFWYYTMGWYRQAPGKERELVATITRSGSRTYYADSVKGRFTISRDNAKNTVYLQMNSLNPEDTAVYYCAKDFGRWTYDYWGQATQVTVSS,low polyreactivity
25,QVQLVESGGGLVQAGGSLRLSCAASGSIFYAYAMGWYIQAPGKERELVAGINTRGGSTYYADSVKGRFTISRDNAKNTVYLQMNSLKPEDTAVYYCAKGTAPIPYRGRVGTSKSDYWGQGTQVTVSS,low polyreactivity
26,QVQLVESGGGLVQAGGSLRLSCAASGSIFYAYTMGWYRQAPGKERELVARITQSDDGTYYADSVKGRFTISRDNAKNTVYLQMNSLKPEDTAVYYCAVVFWQLAHRYDYWGQGTQVTVSS,low polyreactivity
27,QVQLVESGGGLVQAGGSLRLSCAASGSIFYENAMGWYRQAPGKERELVAAISRSGGSTYYADSVKGRFTISRDNAKNTVYLQMNSLKPEDTAVYYCAADVYVFIGDYWGQGTQVTVSS,low polyreactivity
28,QVQLVESGGGLVQAGGSLRLSCAASGSIFYENNMGWYRQAPGKEREFVAAISRSGGSTYYADSVKRRFTISRDNAKNTVYLQLNSLKPEDTAVYYCAARSRPGYAVYYWGQGTQVTVSS,high polyreactivity
29,QVQLVESGGGLVQAGGSLRLSCAASGSIFYENTMGWYRQAPGKEREFVAAISRSGGSTYYADSEKGRYTISRDNAKNTVYLQRNSLKPEDTAVYYCAAKSRRYHHEYYYWGQGTQVTVSS,high polyreactivity
30,QVQLVESGGGLVQAGGSLRLSCAASGSIFYENVMGWYRQAPGKERELVAGISRSGGRTYYADSVKGRFTISRDNAKNTVYLQMNSLIPEDTAVYYCNAARVYLSEWGQGTQVTVSS,high polyreactivity
